Test results published in the Human Domainome abundance scans (Beltran et al. 2025).
± gives the uncertainty stated by the source.

B1: Protein maelstrom homolog, residues 3 to 71; numbered along this chain, Q96JY0 (parent)
chain: NRKASRNAYYFFVQEKIPELRRRGLPVARVADAIPYCSSDWALLREEEKEKYAEMAREWRAAQGKDPGP

Variants of: B1
Experiment: abundance fitness (aPCA) (normalised: wild type 0, dead -1); higher = more abundant; growth selection in yeast, the domain comes from the species named
Settings: Homo sapiens
With NRKASRNAYYFFVQEKIPDLRRRGLPVARVADAIPYCSSDWALLREEEKEKYAEMAREWRAAQGKDPGP [E19D] the abundance fitness was -0.093 ± 0.15.
Work on NRKASRNAYYFFVQEKIPNLRRRGLPVARVADAIPYCSSDWALLREEEKEKYAEMAREWRAAQGKDPGP [E19N] yielded an abundance fitness of -0.966 ± 0.47.
NRKASRNAYYFFVQEKIPHLRRRGLPVARVADAIPYCSSDWALLREEEKEKYAEMAREWRAAQGKDPGP [E19H] showed an abundance fitness of -0.54 ± 0.14.
With NRKASRNAYYFFVQEKIPMLRRRGLPVARVADAIPYCSSDWALLREEEKEKYAEMAREWRAAQGKDPGP [E19M] the abundance fitness was -0.303 ± 0.088.
NRKASRNAYYFFVQEKIPRLRRRGLPVARVADAIPYCSSDWALLREEEKEKYAEMAREWRAAQGKDPGP [E19R] gave an abundance fitness of -0.674 ± 0.058.
Work on NRKASRNAYYFFVQEKIPPLRRRGLPVARVADAIPYCSSDWALLREEEKEKYAEMAREWRAAQGKDPGP [E19P] yielded an abundance fitness of -0.733 ± 0.14.
NRKASRNAYYFFVQEKIPCLRRRGLPVARVADAIPYCSSDWALLREEEKEKYAEMAREWRAAQGKDPGP [E19C] gave an abundance fitness of -0.548 ± 0.15.
NRKASRNAYYFFVQEKIPLLRRRGLPVARVADAIPYCSSDWALLREEEKEKYAEMAREWRAAQGKDPGP [E19L] showed an abundance fitness of -0.412 ± 0.067.
With NRKASRNAYYFFVQEKIPQLRRRGLPVARVADAIPYCSSDWALLREEEKEKYAEMAREWRAAQGKDPGP [E19Q] the abundance fitness was -0.623 ± 0.13.
For NRKASRNAYYFFVQEKIPSLRRRGLPVARVADAIPYCSSDWALLREEEKEKYAEMAREWRAAQGKDPGP [E19S], the abundance fitness was -0.204 ± 0.053.
Work on NRKASRNAYYFFVQEKIPKLRRRGLPVARVADAIPYCSSDWALLREEEKEKYAEMAREWRAAQGKDPGP [E19K] yielded an abundance fitness of -0.686 ± 0.11.
In the case of NRKASRNAYYFFVQEKIPVLRRRGLPVARVADAIPYCSSDWALLREEEKEKYAEMAREWRAAQGKDPGP [E19V], the abundance fitness is reported as -0.25 ± 0.06.
Work on NRKASRNAYYFFVQEKIEELRRRGLPVARVADAIPYCSSDWALLREEEKEKYAEMAREWRAAQGKDPGP [P18E] yielded an abundance fitness of -0.306 ± 0.1.
In the case of NRKASRNAYYFFVQEKIFELRRRGLPVARVADAIPYCSSDWALLREEEKEKYAEMAREWRAAQGKDPGP [P18F], the abundance fitness is reported as -0.286 ± 0.16.
NRKASRNAYYFFVQEKICELRRRGLPVARVADAIPYCSSDWALLREEEKEKYAEMAREWRAAQGKDPGP [P18C] gave an abundance fitness of -0.358 ± 0.1.
In the case of NRKASRNAYYFFVQEKIMELRRRGLPVARVADAIPYCSSDWALLREEEKEKYAEMAREWRAAQGKDPGP [P18M], the abundance fitness is reported as -0.263 ± 0.097.
In the case of NRKASRNAYYFFVQEKIIELRRRGLPVARVADAIPYCSSDWALLREEEKEKYAEMAREWRAAQGKDPGP [P18I], the abundance fitness is reported as -0.452 ± 0.2.
NRKASRNAYYFFVQEKIVELRRRGLPVARVADAIPYCSSDWALLREEEKEKYAEMAREWRAAQGKDPGP [P18V] gave an abundance fitness of -0.268 ± 0.057.
NRKASRNAYYFFVQEKINELRRRGLPVARVADAIPYCSSDWALLREEEKEKYAEMAREWRAAQGKDPGP [P18N] gave an abundance fitness of -0.532 ± 0.15.
NRKASRNAYYFFVQEKIQELRRRGLPVARVADAIPYCSSDWALLREEEKEKYAEMAREWRAAQGKDPGP [P18Q] showed an abundance fitness of -0.338 ± 0.094.
In the case of NRKASRNAYYFFVQEKISELRRRGLPVARVADAIPYCSSDWALLREEEKEKYAEMAREWRAAQGKDPGP [P18S], the abundance fitness is reported as -0.4 ± 0.071.
Variant NRKASRNAYYFFVQEKIYELRRRGLPVARVADAIPYCSSDWALLREEEKEKYAEMAREWRAAQGKDPGP [P18Y] has an abundance fitness of -0.673 ± 0.25.
Variant NRKASRNAYYFFVQEKIRELRRRGLPVARVADAIPYCSSDWALLREEEKEKYAEMAREWRAAQGKDPGP [P18R] has an abundance fitness of -0.526 ± 0.057.
In the case of NRKASRNAYYFFVQEKIDELRRRGLPVARVADAIPYCSSDWALLREEEKEKYAEMAREWRAAQGKDPGP [P18D], the abundance fitness is reported as -0.313 ± 0.099.
Variant NRKASRNAYYFFVQEKIGELRRRGLPVARVADAIPYCSSDWALLREEEKEKYAEMAREWRAAQGKDPGP [P18G] has an abundance fitness of -0.31 ± 0.067.
In the case of NRKASRNAYYFFVQEKIHELRRRGLPVARVADAIPYCSSDWALLREEEKEKYAEMAREWRAAQGKDPGP [P18H], the abundance fitness is reported as -0.019 ± 0.26.
For NRKASRNAYYFFVQEKIKELRRRGLPVARVADAIPYCSSDWALLREEEKEKYAEMAREWRAAQGKDPGP [P18K], the abundance fitness was -0.498 ± 0.11.
NRKASRNAYYFFVQEKILELRRRGLPVARVADAIPYCSSDWALLREEEKEKYAEMAREWRAAQGKDPGP [P18L] gave an abundance fitness of -0.606 ± 0.1.
Work on NRKASRNAYYFFVQEKIAELRRRGLPVARVADAIPYCSSDWALLREEEKEKYAEMAREWRAAQGKDPGP [P18A] yielded an abundance fitness of -0.376 ± 0.067.
For NRKASRNAYYFFVQEKITELRRRGLPVARVADAIPYCSSDWALLREEEKEKYAEMAREWRAAQGKDPGP [P18T], the abundance fitness was -0.411 ± 0.074.
In the case of NRKASRNAYYFFVQEKIPEQRRRGLPVARVADAIPYCSSDWALLREEEKEKYAEMAREWRAAQGKDPGP [L20Q], the abundance fitness is reported as -0.797 ± 0.12.
With NRKASRNAYYFFVQEKIPENRRRGLPVARVADAIPYCSSDWALLREEEKEKYAEMAREWRAAQGKDPGP [L20N] the abundance fitness was -0.642 ± 0.22.
For NRKASRNAYYFFVQEKIPEWRRRGLPVARVADAIPYCSSDWALLREEEKEKYAEMAREWRAAQGKDPGP [L20W], the abundance fitness was -0.673 ± 0.12.
Work on NRKASRNAYYFFVQEKIPEMRRRGLPVARVADAIPYCSSDWALLREEEKEKYAEMAREWRAAQGKDPGP [L20M] yielded an abundance fitness of -0.334 ± 0.15.
Work on NRKASRNAYYFFVQEKIPESRRRGLPVARVADAIPYCSSDWALLREEEKEKYAEMAREWRAAQGKDPGP [L20S] yielded an abundance fitness of -0.844 ± 0.11.
In the case of NRKASRNAYYFFVQEKIPEVRRRGLPVARVADAIPYCSSDWALLREEEKEKYAEMAREWRAAQGKDPGP [L20V], the abundance fitness is reported as -0.677 ± 0.08.
NRKASRNAYYFFVQEKIPEIRRRGLPVARVADAIPYCSSDWALLREEEKEKYAEMAREWRAAQGKDPGP [L20I] showed an abundance fitness of -0.636 ± 0.21.
With NRKASRNAYYFFVQEKIPEGRRRGLPVARVADAIPYCSSDWALLREEEKEKYAEMAREWRAAQGKDPGP [L20G] the abundance fitness was -0.739 ± 0.068.
NRKASRNAYYFFVQEKIPECRRRGLPVARVADAIPYCSSDWALLREEEKEKYAEMAREWRAAQGKDPGP [L20C] showed an abundance fitness of -0.611 ± 0.17.
